{
  "source": "patent US11612662B2",
  "about": "“Multi-arm polymeric prodrug conjugates of pemetrexed-based compounds” (priority 2010, dated 2023)",
  "key": {"in vivo": {"assay": "in vivo", "details": "for tolerability of the dosage level: tolerated if treatment-related weight loss <20%; for % Rx Related Deaths / Day of Max. Mean Body Weight Loss (body weight nadir): once each day for ten days", "procedure": "The purpose of this study was to determine the maximum tolerated dose for pemetrexed (PMX), Compound 20a (from Example 1), Compound 20b (from Example 1), Compound 20c (from Example 1), and Compound 20d (from Example 1) in female SCID mice fed a low folate diet. All compounds were administered intravenously, once each day, for ten consecutive days.\nCalculations were made to provide “dose equivalents” between PMX, Compound 20a, Compound 20b, Compound 20c and Compound 20d, which “dose equivalents” along with the “actual dose” administered are provided in Table 2. All dosagese in this example are expressed in terms of “dose equivalents” and adjustments were made for excipients, salts and hydration state.\nFemale SCID mice (HsdIcr:Ha (ICR)-Prkdc-scid) were obtained from Harlan. They were seven weeks old on Day 1 of the experiment. The mice in Groups 1 and 2 were fed irradiated Rodent Diet 5053 (LabDiet™). The mice in Groups 3 through 19 were fed irradiated Folic Acid Deficient Purina TestDiet supplemented with 1% succinylsufathiazol from 14 days prior to dosing until 14 days after dosing was completed, at which time the study was terminated and the mice were then euthanized. All groups received drinking water ad libitum. Mice were housed in static cages in clean rooms that provide H.E.P.A filtered air into the environment at 100 complete air changes per hour. All treatments, body weight determinations, and tumor measurements were carried out in the environment. The environment was controlled to a temperature range of 70°±2° F. and a humidity range of 30-70%. […] Mice found in obvious distress or in a moribund condition were euthanized. The study was carried out in an AAALAC accredited facility.\nTreatments began on Day 1. […] Mice in Groups 3 through 19 were fed irradiated Folic Acid Deficient Purina TestDiet with 1% Succinylsufathiazol for 14 days prior to dosing as well as throughout the entire experiment. All mice were dosed according to individual body weight on the day of treatment (0.2 ml/20 g).\nMice were weighed on each day of treatment and at least three times weekly thereafter. Individual body weights were recorded three times weekly. […] In this report, a dosage level is described as tolerated if treatment-related weight loss (during and two weeks after treatment) is <20%. Upon death or euthanasia, all mice were necropsied to provide a general assessment of potential cause of death and perhaps target organs for toxicity."}, "[1]": {"assay": "Single dose maximum tolerated dose study", "assay_type": "in vivo, mice", "details": "single intravenous dose; for Single dose MTD: dose equivalents, in mg/kg", "procedure": "Because of too much efficacy of daily dosing for ten days in a pilot xenograft study (likely due to the effects of repeated dosing), a single dose maximum tolerated dose study was conducted using a method similar to that provided in Example 3 in order to have a better dosing schedule for a comparative xenograft study."}, "xenograft": {"system": "xenograft", "assay": "In vivo xenograft study", "set-up": "species or system female athymic nu/nu mice", "details": "as of day 26; intravenously, at 80% and at 50% of the single dose maximum tolerated dose", "procedure": "Briefly, for run of the experiment, a previously untreated group of 8-12 week old mice was intravenously administered a test article prepared in saline and diluted to appropriate concentrations to allow administration volumes of a maximum of 20 mL/kg. Each compound of interest was tested twice: once at 80% of the maximum tolerated dose and once at 50% of the maximum tolerated (maximum tolerated doses calculated on the single dose maximum tolerated dose study).\nMice were observed daily for clinical signs and body weights were recorded daily (except on weekend days) then biweekly until the end of study. Dosing was terminated for any group in which mean weight loss exceeded 20% or >10% of animals died. Moribund animals were euthanized."}, "[2]": {"details": "low folate diet, dosage levels found tolerated"}, "[3]": {"details": "low folate diet, 1 mg/kg/inj dose equivalents"}, "[4]": {"details": "low folate diet, 3.75 mg/kg/inj dose equivalents"}, "[5]": {"details": "low folate diet, 15 mg/kg/inj dose equivalents"}},
  "data": [
    {"substance": "4-arm-PEG10k-γ-amide-Pemetrexed Conjugate [Compound 20a]", "values": [
      {"measurement": "maximum treatment-related body weight loss", "setting": "in vivo; low folate diet, 1 mg/kg", "result": "approximately 3.0%"},
      {"measurement": "tolerability of the dosage level", "setting": "in vivo; low folate diet, 1 mg/kg", "result": "tolerated"},
      {"measurement": "maximum treatment-related body weight loss", "setting": "in vivo; low folate diet, 3.75 mg/kg", "result": "approximately 3.0%"},
      {"measurement": "Days of Deaths (s = surviving at study end)", "setting": "in vivo; low folate diet, 3.75 mg/kg/inj dose equivalents, five mice listed singly", "result": "s, s, s, s, s"},
      {"measurement": "tolerability of the dosage level", "setting": "in vivo; low folate diet, 3.75 mg/kg", "result": "tolerated"},
      {"measurement": "maximum treatment-related body weight loss", "setting": "in vivo; low folate diet, 15 mg/kg", "result": 14.9, "unit": "%"},
      {"measurement": "time to recover lost body weight", "setting": "in vivo; low folate diet, 15 mg/kg", "result": "approximately 10 days"},
      {"measurement": "tolerability of the dosage level", "setting": "in vivo; low folate diet, 15 mg/kg", "result": "toxic"},
      {"measurement": "common clinical signs", "setting": "in vivo; [2]", "result": "Rough pelage"},
      {"measurement": "necropsy findings", "setting": "in vivo; [2]", "result": "bloated intestines and air filled stomachs"},
      {"measurement": "Max. Mean Body Weight change during Rx (%)", "setting": "in vivo; low folate diet, intravenously once each day for ten days, 1 mg/kg/inj dose equivalents", "result": "−3.4", "unit": "%"},
      {"measurement": "Max. Mean Body Weight change during Rx (%)", "setting": "in vivo; low folate diet, intravenously once each day for ten days, 3.75 mg/kg/inj dose equivalents", "result": "−3.0", "unit": "%"},
      {"measurement": "Max. Mean Body Weight change during Rx (%)", "setting": "in vivo; low folate diet, intravenously once each day for ten days, 15 mg/kg/inj dose equivalents", "result": "−14.9", "unit": "%"},
      {"measurement": "% Rx Related Deaths", "setting": "in vivo; [3]", "result": 20, "unit": "%"},
      {"measurement": "Day of Max. Mean Body Weight Loss (body weight nadir)", "setting": "in vivo; [3]", "result": 5},
      {"measurement": "% Rx Related Deaths", "setting": "in vivo; [4]", "result": 0, "unit": "%"},
      {"measurement": "Day of Max. Mean Body Weight Loss (body weight nadir)", "setting": "in vivo; [4]", "result": 8},
      {"measurement": "% Rx Related Deaths", "setting": "in vivo; [5]", "result": 40, "unit": "%"},
      {"measurement": "Day of Max. Mean Body Weight Loss (body weight nadir)", "setting": "in vivo; [5]", "result": 8},
      {"measurement": "MTD (maximum tolerated dose)", "setting": "in vivo; mice fed a folate deficient diet, intravenously once each day for ten days, dose equivalents", "result": "3.75 to 15", "unit": "mg/kg"}
    ]},
    {"substance": "4-arm-PEG-20k-γ-Ethyl-Ester-pemetrexed [Compound 24b]", "values": [
      {"measurement": "Single dose MTD", "setting": "[1]", "result": 12},
      {"measurement": "treatment-related deaths", "setting": "[1]; tested dose (equiv) 8", "result": 0},
      {"measurement": "BWL (body weight loss)", "setting": "[1]; tested dose (equiv) 12", "result": "−8.9", "unit": "%"},
      {"measurement": "day (of body weight loss)", "setting": "[1]; tested dose (equiv) 12", "result": 5},
      {"measurement": "treatment-related deaths", "setting": "[1]; tested dose (equiv) 12", "result": 0},
      {"measurement": "BWL (body weight loss)", "setting": "[1]; tested dose (equiv) 20", "result": "−10.4", "unit": "%"},
      {"measurement": "day (of body weight loss)", "setting": "[1]; tested dose (equiv) 20", "result": 5},
      {"measurement": "treatment-related deaths", "setting": "[1]; tested dose (equiv) 20", "result": 0},
      {"measurement": "tumor volume compared with saline control", "setting": "xenograft", "result": "significantly less tumor volume than saline control"}
    ]},
    {"substance": "4-arm-PEG-40k-γ-Ethyl-Ester-pemetrexed [Compound 24c]", "values": [
      {"measurement": "Single dose MTD", "setting": "[1]", "result": 10},
      {"measurement": "BWL (body weight loss)", "setting": "[1]; tested dose (equiv) 5", "result": "−0.5", "unit": "%"},
      {"measurement": "day (of body weight loss)", "setting": "[1]; tested dose (equiv) 5", "result": 5},
      {"measurement": "treatment-related deaths", "setting": "[1]; tested dose (equiv) 5", "result": 0},
      {"measurement": "BWL (body weight loss)", "setting": "[1]; tested dose (equiv) 10", "result": "−7.6", "unit": "%"},
      {"measurement": "day (of body weight loss)", "setting": "[1]; tested dose (equiv) 10", "result": 5},
      {"measurement": "treatment-related deaths", "setting": "[1]; tested dose (equiv) 10", "result": 0},
      {"measurement": "BWL (body weight loss)", "setting": "[1]; tested dose (equiv) 15", "result": "−15.7", "unit": "%"},
      {"measurement": "day (of body weight loss)", "setting": "[1]; tested dose (equiv) 15", "result": 7},
      {"measurement": "treatment-related deaths", "setting": "[1]; tested dose (equiv) 15", "result": 0},
      {"measurement": "tumor volume compared with saline control", "setting": "xenograft", "result": "significantly less tumor volume than saline control"}
    ]},
    {"substance": "4-arm-PEG-20k-γ-isopropyl-ester-pemetrexed [Compound 28]", "values": [
      {"measurement": "Single dose MTD", "setting": "[1]", "result": 10},
      {"measurement": "BWL (body weight loss)", "setting": "[1]; tested dose (equiv) 10", "result": "−7.3", "unit": "%"},
      {"measurement": "day (of body weight loss)", "setting": "[1]; tested dose (equiv) 10", "result": 9},
      {"measurement": "treatment-related deaths", "setting": "[1]; tested dose (equiv) 10", "result": 0},
      {"measurement": "BWL (body weight loss)", "setting": "[1]; tested dose (equiv) 18", "result": "−6.6", "unit": "%"},
      {"measurement": "day (of body weight loss)", "setting": "[1]; tested dose (equiv) 18", "result": 5},
      {"measurement": "treatment-related deaths", "setting": "[1]; tested dose (equiv) 18", "result": 0},
      {"measurement": "BWL (body weight loss)", "setting": "[1]; tested dose (equiv) 25", "result": "−9.1", "unit": "%"},
      {"measurement": "day (of body weight loss)", "setting": "[1]; tested dose (equiv) 25", "result": 7},
      {"measurement": "treatment-related deaths", "setting": "[1]; tested dose (equiv) 25", "result": 0},
      {"measurement": "tumor volume compared with saline control", "setting": "xenograft", "result": "significantly less tumor volume than saline control"}
    ]}
  ]
}
